Data on two molecules can be found in US20210393777A1 (SHANGHAI JUNSHI BIOSCIENCES, published 2021).

The assay deals with T1, human PCSK9 (human, UniProt Q8NBP7 31-692).
T1 construct: Soluble analyte in the ForteBio assay; also called human proprotein convertase subtilisin/kexin type 9
The experiment in a line: ForteBio BLI, biotinylated antibody on streptavidin probes, PCSK9 in solution. The method, then:
ForteBio affinity assays were implemented according to the prior art. […] After the buffer exchange, the protein content was measured by the absorbance at 280 nm, and the concentration was adjusted to 2 mg/mL. 2 mg of Sulfo-NHS-Biotin was equilibrated to room temperature and added to […] of ultrapure water to give a 10 mM Biotin stock solution. 1 mL of 2 mg/mL JS002 and evolocumab were transferred to a new EP tube, and 8 μL of biotin stock solution was added according to a ratio of protein:biotin=1:6. The mixture was well mixed and incubated at room temperature for 1-2 h. […] After the buffer exchange, the protein content was measured by the absorbance at 280 nm, and the concentration was adjusted to 1-2 mg/mL. The biotinylated protein was aliquoted in tubes at 0.1 mL per tube, and was stored at −80° C. with no more than 1 freeze-thaw. […] The affinity constant was calculated by the formula=koff/kₒₙ.
(In general: In BLI a coated tip is dipped into the sample, and binding shifts an interference pattern.)

B1: evolocumab (antibody, V domains shown)
VH: QVQLVQSGAEVKKPGASVKVSCKASGYTLTSYGISWVRQAPGQGLEWMGWVSFYNGNTNYAQKLQGRGTMTTDPSTSTAYMELRSLRSDDTAVYYCARGYGMDVWGQGTTVTVSS
VL: QSALTQPASVSGSPGQSITISCTGTSSDVGGYNSVSWYQQHPGKAPKLMIYEVSNRPSGVSNRFSGSKSGNTASLTISGLQAEDEADYYCNSYTSTSMVFGGGTKLTVL
As a reminder, the Kd is the constant that tells how readily two partners part at equilibrium. A high value points to lower affinity. A word on the koff: it is the first-order rate constant of dissociation. The kon is a measure of how fast the partners come together. B1 registered a Kd of 0.651 nM, a koff of 3.21e-05 s⁻¹ and a kon of 49200 M⁻¹ s⁻¹.

B2: JS002 (antibody, human IgG4 S228P, kappa, V domains shown)
VH: QVQLQESGPGLVKPSQTLSLTCTVSGFSISSYGIHWIRQSPGKGLEWIGVIWRGGITDYNAPFMSRVTISKDNSKNQVSFKLSSVTAADTAVYYCANHRDWGQGTLVTVSS
VL: DIQMTQSPSSLSASVGDRVTITCQASQDINKYIDWYQHKPGKAPKLLIHYASTLQPGVPSRFSGSGSGRDYTFTISSLQPEDIATYYCLQYDDLWTFGQGTKVEIKR
notes: Full-length humanized antibody; In the ForteBio assay it was biotinylated with Sulfo-NHS-Biotin (protein:biotin 1:6) and held on streptavidin probes; Tested from various liquid formulations (no. 20, 28-31); also called recombinant humanized anti-PCSK9 monoclonal antibody; anti-PCSK9 antibody
B2 came in with a Kd of 0.0215 nM, a koff of 1.3e-06 s⁻¹ and a kon of 60200 M⁻¹ s⁻¹.
